Experimental data: PMC13458767, “C-terminal lysine residues localise NLRP10 at lipid droplets and govern NLRP10 oligomer formation” (EMBO Reports, 2026)

What was measured:
[1] = target: human NLRP10ΔHD2–tail (aa 4–482), MBP-tagged recombinant protein (human) (UniProt Q86W26); assay: SEC-MALS; MBP-NLRP10 (4–482) at several concentrations; molecular weights determined; no methods told for the SEC-MALS
[2] = target: the molecule itself; assay: SEC; Superose 6 Increase 10/300 GL or Superdex 200 Increase 10/300 GL; 25 mM Tris pH 7.5, 300 mM NaCl, 5 mM ß-ME, 5% glycerol; peak 1 (void) and peak 2 collected

Row | stoichiometry N [1] | Molecule | binding result [2]
1 | 2 | human NLRP10ΔHD2–tail (aa 4–482), MBP-tagged recombinant protein (from UniProt Q86W26 4-482) (domain or fragment) | 
2 |  | human NLRP10 (aa 4–655), MBP-tev-tagged recombinant protein (natural protein, UniProt Q86W26 4-655, looked up, MBP is followed by a tev site; no cleavage step is described in the methods; also called NLRP10 (4–655); wild-type NLRP10) AKARKPREALLWALSDLEENDFKKLKFYLRDMTLSEGQPPLARGELEGLIPVDLAELLISKYGEKEAVKVVLKGLKVMNLLELVDQLSHICLHDYREVYREHVRCLEEWQEAGVNGRYNQVLLVAKPSSESPESLACPFPEQELESVTVEALFDSGEKPSLAPSLVVLQGSAGTGKTTLARKMVLDWATGTLYPGRFDYVFYVSCKEVVLLLESKLEQLLFWCCGDNQAPVTEILRQPERLLFILDGFDELQRPFEEKLKKRGLSPKESLLHLLIRRHTLPTCSLLITTRPLALRNLEPLLKQARHVHILGFSEEERARYFSSYFTDEKQADRAFDIVQKNDILYKACQVPGICWVVCSWLQGQMERGKVVLETPRNSTDIFMAYVSTFLPPDDDGGCSELSRHRVLRSLCSLAAEGIQHQRFLFEEAELRKHNLDGPRLAAFLSSNDYQLGLAIKKFYSFRHISFQDFFHAMSYLVKEDQSRLGKESRREVQRLLEVKEQEGNDEMTLTMQFLLDISKKDSFSNLELKFCFRISPCLAQDLKHFKEQMESMKHNRTWDLEFSLYEAKIKNLVKGIQMNNVSFKIKHSNEKKSQSQNLFSVKSSLSHGPKEEQKCPSVHGQKEGKDNIAGTQKEASTGKGRGTEETPKNTYI | binds
3 |  | Walker A mutant human NLRP10 (aa 4–655 K179A), MBP-tev-tagged recombinant protein (natural protein, UniProt Q86W26 4-655, looked up, NLRP10, human, residues 4-655, Walker A mutant K179A; MBP is followed by a tev site; no cleavage step is described in the methods; also called NLRP10 K179A; K179A mutant) AKARKPREALLWALSDLEENDFKKLKFYLRDMTLSEGQPPLARGELEGLIPVDLAELLISKYGEKEAVKVVLKGLKVMNLLELVDQLSHICLHDYREVYREHVRCLEEWQEAGVNGRYNQVLLVAKPSSESPESLACPFPEQELESVTVEALFDSGEKPSLAPSLVVLQGSAGTGATTLARKMVLDWATGTLYPGRFDYVFYVSCKEVVLLLESKLEQLLFWCCGDNQAPVTEILRQPERLLFILDGFDELQRPFEEKLKKRGLSPKESLLHLLIRRHTLPTCSLLITTRPLALRNLEPLLKQARHVHILGFSEEERARYFSSYFTDEKQADRAFDIVQKNDILYKACQVPGICWVVCSWLQGQMERGKVVLETPRNSTDIFMAYVSTFLPPDDDGGCSELSRHRVLRSLCSLAAEGIQHQRFLFEEAELRKHNLDGPRLAAFLSSNDYQLGLAIKKFYSFRHISFQDFFHAMSYLVKEDQSRLGKESRREVQRLLEVKEQEGNDEMTLTMQFLLDISKKDSFSNLELKFCFRISPCLAQDLKHFKEQMESMKHNRTWDLEFSLYEAKIKNLVKGIQMNNVSFKIKHSNEKKSQSQNLFSVKSSLSHGPKEEQKCPSVHGQKEGKDNIAGTQKEASTGKGRGTEETPKNTYI | binds
